Experimental data from patent US20240252614A1 (Pfizer, published 2024).

Experiments:
hMPV061 [1] = molecular target: T1, hMPV061 (hMPV A, UniProt Q6WB98 19-102); assay: BLI, 53C stress
T1 construct: G106A
Experimental: (§1) The OCTET HTX (Sartorius, Gottingen, Germany) instrument was used to evaluate the expression and conformational integrity for each mutant. All measurements were conducted at 30° C. temperature in 96-well black plates (Corning, Corning, NY) with a final volume of 240 μL per well at a constant agitation rate of 1000 RPM.
(§2) Conformation integrity of hMPV A F protein mutants were evaluated by thermal stress experiments. Crude cell culture supernatants were normalized based on the results of the titer quantitation and then incubated for 1 hour at room temperature and two higher temperatures. […] Anti-Human IgG Fc Capture (AHC) biosensors were first equilibrated in PB before being dipped into more PB to establish the initial baseline. […] The mAb-bound biosensors were then dipped into the thermal stressed cell culture supernatants for 5 minutes. The kinetics analysis was done by OCTET data analysis software (version 12.0, Sartorius) based on curve fitting of the entire associate step.

hMPV050 [2] = molecular target: T2, hMPV050 (hMPV A, UniProt Q6WB98 19-102); assay: BLI, 53C stress
T2 construct: V148C-L158C
Experimental: as §1, §2

hMPV047 [3] = molecular target: T3, hMPV047 (hMPV A, UniProt Q6WB98 19-102); assay: BLI, 53C stress
T3 construct: L141C-A159C
Experimental: as §1, §2

hMPV060 [4] = molecular target: T4, hMPV060 (hMPV A, UniProt Q6WB98 19-102); assay: BLI, 53C stress
T4 construct: A459P
Experimental: as §1, §2

hMPV062 [5] = molecular target: T5, hMPV062 (hMPV A, UniProt Q6WB98 19-102); assay: BLI, 53C stress
T5 construct: G121A
Experimental: as §1, §2

hMPV061 [6] = molecular target: T1, hMPV061; assay: BLI, 50C stress, vs WT Control
Experimental: as §1, §2

hMPV043 = molecular target: T6, hMPV043 (hMPV A, UniProt Q6WB98 19-102); assay: BLI, 50C stress, vs WT Control
T6 construct: G366C-D454C
Experimental: as §1, §2

hMPV053 = molecular target: T7, hMPV053 (hMPV A, UniProt Q6WB98 19-102); assay: BLI, 50C stress, vs WT Control
T7 construct: L110P
Experimental: as §1, §2

hMPV068 = molecular target: T8, hMPV068 (hMPV A, UniProt Q6WB98 19-102); assay: BLI, 50C stress, vs WT Control
T8 construct: A159V
Experimental: as §1, §2

hMPV059 = molecular target: T9, hMPV059 (hMPV A, UniProt Q6WB98 19-102); assay: BLI, 50C stress, vs WT Control
T9 construct: V449P
Experimental: as §1, §2

hMPV048 = molecular target: T10, hMPV048 (hMPV A, UniProt Q6WB98 19-102); assay: BLI, 50C stress, vs WT Control
T10 construct: L141C-A161C
Experimental: as §1, §2

hMPV058 = molecular target: T11, hMPV058 (hMPV A, UniProt Q6WB98 19-102); assay: BLI, 50C stress, vs WT Control
T11 construct: L187P
Experimental: as §1, §2

hMPV052 = molecular target: T12, hMPV052 (hMPV A, UniProt Q6WB98 19-102); assay: BLI, 50C stress, vs WT Control
T12 construct: L66P
Experimental: as §1, §2

hMPV071 = molecular target: T13, hMPV071 (hMPV A, UniProt Q6WB98 19-102); assay: BLI, 50C stress, vs WT Control
T13 construct: T365I
Experimental: as §1, §2

hMPV050 [7] = molecular target: T2, hMPV050; assay: BLI, 50C stress, vs WT Control
Experimental: as §1, §2

hMPV069 = molecular target: T14, hMPV069 (hMPV A, UniProt Q6WB98 19-102); assay: BLI, 50C stress, vs WT Control
T14 construct: S291I
Experimental: as §1, §2

hMPV054 = molecular target: T15, hMPV054 (hMPV A, UniProt Q6WB98 19-102); assay: BLI, 50C stress, vs WT Control
T15 construct: S132P
Experimental: as §1, §2

hMPV055 = molecular target: T16, hMPV055 (hMPV A, UniProt Q6WB98 19-102); assay: BLI, 50C stress, vs WT Control
T16 construct: N145P
Experimental: as §1, §2

hMPV045 = molecular target: T17, hMPV045 (hMPV A, UniProt Q6WB98 19-102); assay: BLI, 50C stress, vs WT Control
T17 construct: I137C-A159C
Experimental: as §1, §2

hMPV044 = molecular target: T18, hMPV044 (hMPV A, UniProt Q6WB98 19-102); assay: BLI, 50C stress, vs WT Control
T18 construct: T411C-Q434C
Experimental: as §1, §2

hMPV A F WT Control = hMPV A F WT Control (hMPV A, UniProt Q6WB98 19-102); assay: BLI, 50C stress, vs WT Control
Experimental: as §1, §2

hMPV046 = molecular target: T19, hMPV046 (hMPV A, UniProt Q6WB98 19-102); assay: BLI, 50C stress, vs WT Control
T19 construct: A140C-S149C
Experimental: as §1, §2

hMPV049 = molecular target: T20, hMPV049 (hMPV A, UniProt Q6WB98 19-102); assay: BLI, 50C stress, vs WT Control
T20 construct: E146C-T160C
Experimental: as §1, §2

hMPV063 = molecular target: T21, hMPV063 (hMPV A, UniProt Q6WB98 19-102); assay: BLI, 50C stress, vs WT Control
T21 construct: G239A
Experimental: as §1, §2

hMPV047 [8] = molecular target: T3, hMPV047; assay: BLI, 50C stress, vs WT Control
Experimental: as §1, §2

hMPV060 [9] = molecular target: T4, hMPV060; assay: BLI, 50C stress, vs WT Control
Experimental: as §1, §2

hMPV075 = molecular target: T22, hMPV075 (hMPV A, UniProt Q6WB98 19-102); assay: BLI, 50C stress, vs WT Control
T22 construct: L473F
Experimental: as §1, §2

hMPV077 = molecular target: T23, hMPV077 (hMPV A, UniProt Q6WB98 19-102); assay: BLI, 50C stress, vs WT Control
T23 construct: Q476C, S477C
Experimental: as §1, §2

hMPV066 = molecular target: T24, hMPV066 (hMPV A, UniProt Q6WB98 19-102); assay: BLI, 50C stress, vs WT Control
T24 construct: T49I
Experimental: as §1, §2

hMPV062 [10] = molecular target: T5, hMPV062; assay: BLI, 50C stress, vs WT Control
Experimental: as §1, §2

PIV1044 = molecular target: T25, PIV1044 (PIV1); assay: BLI, 53C stress;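 also: binding of thermally stressed PIV1 F mutant supernatant to mAb on AHC biosensors for 5 min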
T25 construct: Q92L
Experimental: (§3) All measurements were conducted at 30° C. temperature in 96-well black plates (Corning, Corning, NY) with a final volume of 240 μL per well at a constant agitation rate of 1000 RPM.
(§4) Conformation integrity of PIV1 F protein mutants were evaluated by a thermal stress experiment. Crude cell culture supernatants were normalized based on the results of the titer quantitation and then incubated for 1 hour at room temperature and two higher temperatures. For the initial testing of PIV1 mutants, the two temperatures were 50° C. and 53° C. […] Anti-Human IgG Fc Capture (AHC) biosensors were first equilibrated in PB for before being dipped into more PB to establish the initial baseline. […] The mAb-bound biosensors were then dipped into the thermal stresses cell culture supernatants for 5 minutes.

PIV1045 = molecular target: T26, PIV1045 (PIV1); assay: BLI, 53C stress;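 also: binding of thermally stressed PIV1 F mutant supernatant to mAb on AHC biosensors for 5 min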
T26 construct: Q92L, G134A
Experimental: as §3, §4

PIV1046 = molecular target: T27, PIV1046 (PIV1); assay: BLI, 53C stress;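 also: binding of thermally stressed PIV1 F mutant supernatant to mAb on AHC biosensors for 5 min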
T27 construct: A466V, S473V
Experimental: as §3, §4

PIV1042 = molecular target: T28, PIV1042 (PIV1); assay: BLI, 53C stress;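 also: binding of thermally stressed PIV1 F mutant supernatant to mAb on AHC biosensors for 5 min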
T28 construct: Q92A
Experimental: as §3, §4

PIV1043 = molecular target: T29, PIV1043 (PIV1); assay: BLI, 53C stress
T29 construct: Q92A, G134A
Experimental: as §3, §4

B1: hMPV-2 mAb (antibody, V domains shown)
VH: QVQLQQSGAEVKKPGASVKVSCKASGYTFTSYGISWVRQAPGQGLEWMGWISGYNGNTNYAQTFQGTFTMTTDTSTSTAYMELRRLRSGDTAVYYCARDRYYASGSYNGMDVWGQGTTVTVSS
VL: QSALTQPPSASGAPGQRVTVSCSGSSSNVGSSSVYWYQQLPGTAPKLLIYRNNQRPSGVPDRFSGSKSGTSASLAISGLRSEDEADYYCAAWDDSLSGWVFGGGTKLTVLG
notes: human IgG1
- Response Shift (hMPV061 [1]): -0.073 nm
- Response Shift (hMPV050 [2]): -0.032 nm
- Response Shift (hMPV047 [3]): -0.079 nm
- Response Shift (hMPV060 [4]): -0.045 nm
- Response Shift (hMPV062 [5]): 0.013 nm
- Fold change vs WT (hMPV061 [6]): 2 fold
- Fold change vs WT (hMPV043): 2 fold
- Fold change vs WT (hMPV053): 2 fold
- Fold change vs WT (hMPV068): 1.6 fold
- Fold change vs WT (hMPV059): 1.6 fold
- Fold change vs WT (hMPV048): 1.5 fold
- Fold change vs WT (hMPV058): 1.7 fold
- Fold change vs WT (hMPV052): 2.2 fold
- Fold change vs WT (hMPV071): 2.4 fold
- Fold change vs WT (hMPV050 [7]): 0.5 fold
- Fold change vs WT (hMPV069): 1.6 fold
- Fold change vs WT (hMPV054): 1.6 fold
- Fold change vs WT (hMPV055): 0.7 fold
- Fold change vs WT (hMPV045): 0.4 fold
- Fold change vs WT (hMPV044): 2.6 fold
- Fold change vs WT (hMPV A F WT Control): 1 fold
- Fold change vs WT (hMPV046): 1.7 fold
- Fold change vs WT (hMPV049): 1.9 fold
- Fold change vs WT (hMPV063): 2.4 fold
- Fold change vs WT (hMPV047 [8]): -0.1 fold
- Fold change vs WT (hMPV060 [9]): 2.5 fold
- Fold change vs WT (hMPV075): 2.3 fold
- Fold change vs WT (hMPV077): 2.2 fold
- Fold change vs WT (hMPV066): 2.6 fold
- Fold change vs WT (hMPV062 [10]): 1.6 fold

B2: PIV1-8 mAb (antibody, V domains shown)
VH: QVQLVQSGAEVKKPGSSVKVSCEASGGTFSNYVISWVRQAPGQGLEWMGGIIPVFATAKYAQKFQGRVTIIADQSTNTAYLELSSLRSDDTAVYFCASVDSGGTWWDAFAIWGQGTMVTVSS
VL: QAVVTQPRSVSGSPGQAVTISCTGTSSDVGGYNYVSWYQHHPGKAPKLIIYDVTKRPSGVPDRFSGSKSGNTASLTISGLQTEYEADYYCCSYAGSYTLVFGGGTKLTVLG
notes: human IgG1; also called hPIV1-8 mAb; hPIV1-8
- Response Shift (PIV1044): -0.007 nm
- Response Shift (PIV1045): -0.054 nm
- Response Shift (PIV1046): -0.059 nm
- Response Shift (PIV1042): -0.052 nm
- Response Shift (PIV1043): -0.012 nm
